One block for each binder: values may come before it.
What was measured:
Fc-p40 fusion protein = molecular target: T1, Fc-p40 fusion protein (human, UniProt P29460 23-328); assay: co-expression in 293 cells, protein A Sepharose precipitation of 35S-labelled supernatant, SDS-PAGE
T1 construct: mature; Expected to dimerize through the Fc; not shown: human IgG1 Fc (vector pdC-Fc-X)
T1 sequence (looked up): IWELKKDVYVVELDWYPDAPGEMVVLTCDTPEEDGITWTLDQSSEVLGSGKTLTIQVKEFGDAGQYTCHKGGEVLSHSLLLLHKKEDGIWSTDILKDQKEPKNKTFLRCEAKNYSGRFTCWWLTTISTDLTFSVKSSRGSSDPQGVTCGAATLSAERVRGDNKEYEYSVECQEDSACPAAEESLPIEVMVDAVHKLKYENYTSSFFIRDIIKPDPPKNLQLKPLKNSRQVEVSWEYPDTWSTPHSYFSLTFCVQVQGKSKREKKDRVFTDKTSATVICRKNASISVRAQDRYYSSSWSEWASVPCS
Protocol: (§1) After 16 hr, the medium containing the precipitate was removed and replaced with fresh medium. After 3 days, the supernatant was removed and analyzed for production of transfected gene expression by ELISA, biological determination of IL-12 activity, or immunoprecipitation and analysis on SDS gels of radioactively labeled proteins. For labeling, medium without methionine was used to replace the growth medium on the second day of culture and ³⁵S-methionine (100 μCi/ml) is added. After an additional 16 hr incubation, the media was harvested, clarified by centrifugation (5 min at 13,000 rpm in a table top microcentrifuge) and incubated with protein A Sepharose beads (10 μl of bead volume per ml of culture supernatant). After 1 hr at room temperature, the beads were washed by repeated centrifugation and resuspension in PBS buffer containing 1% NP-40. The final pellet was resuspended in SDS-containing gel buffer and boiled for 2 min. After removing the beads by centrifugation, the supernatant was divided into two aliquots. Reducing agent (5% 2-mercaptoethanol) was added to one sample and both are boiled for 5 min prior to loading on an SDS polyacrylamide gel. After electrophoresis the gel was exposed to X-ray film (autoradiography).
(§2) An example of an analysis of the co-expression of various fusion proteins and individually expressed proteins, under reducing conditions, is shown in FIG. 2. […] The p40 subunit, on the other hand, was readily secreted when fused to Fc (lane 2). The p35 subunit was secreted when it could pair with the p40 subunit, either as an Fc-p35 fusion pairing with an Fc-p40 fusion protein (lane 3), the Fc-p35 pairing with free p40 (lane 4), or free p35 pairing with the Fc-p40 fusion protein (lane 5). In all cases of expression of a free subunit, together with a fusion protein, the free subunit assembles with the other subunit and forms a covalent, disulfide bond. […]

[1] = molecular target: T2, free p40 subunit of human IL-12 (human, UniProt P29460 23-328); assay: as above
T2 construct: mature
T2 sequence (looked up): T1 sequence (looked up)
Protocol: as §1, §2

binding result (Fc-p40 fusion protein): binds
B1: free p35 subunit of human IL-12 (ligand, UniProt P29459 23-219, looked up)
chain: RNLPVATPDPGMFPCLHHSQNLLRAVSNMLQKARQTLEFYPCTSEEIDHEDITKDKTSTVEACLPLELTKNESCLNSRETSFITNGSCLASRKTSFMMALCLSSIYEDLKMYQVEFKTMNAKLLMDPKRQIFLDQNMLAVIDELMQALNFNSETVPQKSSLEEPDFYKTKIKLCILLHAFRIRAVTIDRVMSYLNAS
notes: mature

binding result [1]: binds | binding result (Fc-p40 fusion protein): binds
B2: Fc-p35 fusion protein (Fc fusion, human, UniProt P29459 23-219, looked up)
chain: B1 chain
notes: mature; Expected to dimerize through the Fc; Not secreted unless paired with p40; not shown: human IgG1 Fc (vector pdC-Fc-X)

Source: patent US20020193570A1 (EMD LEXIGEN RESEARCH CENTER, published 2002)
